In experiment [1] the target is yeast nucleosome (histone octamer on 147-bp Widom 601 DNA) (Saccharomyces cerevisiae) (UniProt P04911).
Experiment [2] has as its target Tof1-Csm3 (full-length, CBP-tagged) (Saccharomyces cerevisiae) (UniProt P53840).
The target of experiment [3] is yeast nucleosome (histone octamer on 147-bp Widom 601 DNA) (Saccharomyces cerevisiae) (UniProt P04911). This is another data set of the same source.
The target is the same in experiment [4]. This is another data set of the same source.

yeast nucleosome (histone octamer on 147-bp Widom 601 DNA) (Saccharomyces cerevisiae), sequence (P04911 whole entry, chain 1 of 4, other chains not shown): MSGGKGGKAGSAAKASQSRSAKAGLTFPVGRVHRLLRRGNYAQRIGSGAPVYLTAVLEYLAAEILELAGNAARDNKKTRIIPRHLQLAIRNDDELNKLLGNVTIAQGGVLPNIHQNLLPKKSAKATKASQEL
yeast nucleosome (histone octamer on 147-bp Widom 601 DNA) (Saccharomyces cerevisiae), sequence (P02293 whole entry, chain 2 of 4, other chains not shown, further chain): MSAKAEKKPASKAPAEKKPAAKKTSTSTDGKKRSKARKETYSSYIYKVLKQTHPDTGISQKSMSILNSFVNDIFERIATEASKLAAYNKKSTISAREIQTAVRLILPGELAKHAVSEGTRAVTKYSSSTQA
Tof1-Csm3 (full-length, CBP-tagged) (Saccharomyces cerevisiae), sequence (P53840 whole entry, chain 1 of 2): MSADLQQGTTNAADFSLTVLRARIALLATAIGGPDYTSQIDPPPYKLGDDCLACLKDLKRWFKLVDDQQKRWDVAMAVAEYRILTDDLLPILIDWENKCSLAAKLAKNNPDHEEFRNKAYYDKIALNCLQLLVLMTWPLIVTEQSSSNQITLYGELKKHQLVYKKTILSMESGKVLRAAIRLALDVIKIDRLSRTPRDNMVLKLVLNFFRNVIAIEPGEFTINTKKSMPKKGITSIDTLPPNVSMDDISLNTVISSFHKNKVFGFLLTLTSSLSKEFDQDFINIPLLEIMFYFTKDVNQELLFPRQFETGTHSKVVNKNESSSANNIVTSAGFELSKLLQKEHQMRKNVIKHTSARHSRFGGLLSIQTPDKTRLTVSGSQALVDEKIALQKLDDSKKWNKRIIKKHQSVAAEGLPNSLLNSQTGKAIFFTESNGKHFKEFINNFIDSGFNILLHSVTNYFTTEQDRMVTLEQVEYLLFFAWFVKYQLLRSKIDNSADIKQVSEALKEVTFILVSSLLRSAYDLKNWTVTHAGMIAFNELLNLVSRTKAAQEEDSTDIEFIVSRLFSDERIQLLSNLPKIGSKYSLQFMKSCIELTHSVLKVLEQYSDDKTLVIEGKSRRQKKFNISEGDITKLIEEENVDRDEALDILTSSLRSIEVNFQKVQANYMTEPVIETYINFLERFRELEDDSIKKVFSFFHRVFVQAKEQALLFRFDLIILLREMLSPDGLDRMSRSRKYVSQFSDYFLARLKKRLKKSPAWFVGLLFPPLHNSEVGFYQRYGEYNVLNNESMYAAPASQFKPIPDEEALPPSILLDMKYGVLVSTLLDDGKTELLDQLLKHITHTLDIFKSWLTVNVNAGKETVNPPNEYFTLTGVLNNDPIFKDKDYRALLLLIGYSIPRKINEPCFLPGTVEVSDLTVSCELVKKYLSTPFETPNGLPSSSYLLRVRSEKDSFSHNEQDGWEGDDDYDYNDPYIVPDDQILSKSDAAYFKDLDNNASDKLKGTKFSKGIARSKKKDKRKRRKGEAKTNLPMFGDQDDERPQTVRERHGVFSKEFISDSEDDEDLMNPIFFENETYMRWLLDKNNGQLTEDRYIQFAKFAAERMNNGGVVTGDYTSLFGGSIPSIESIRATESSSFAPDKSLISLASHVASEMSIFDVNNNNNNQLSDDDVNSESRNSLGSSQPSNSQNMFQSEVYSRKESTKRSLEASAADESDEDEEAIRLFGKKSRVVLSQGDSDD
Tof1-Csm3 (full-length, CBP-tagged) (Saccharomyces cerevisiae), sequence (Q04659 whole entry, chain 2 of 2, further chain): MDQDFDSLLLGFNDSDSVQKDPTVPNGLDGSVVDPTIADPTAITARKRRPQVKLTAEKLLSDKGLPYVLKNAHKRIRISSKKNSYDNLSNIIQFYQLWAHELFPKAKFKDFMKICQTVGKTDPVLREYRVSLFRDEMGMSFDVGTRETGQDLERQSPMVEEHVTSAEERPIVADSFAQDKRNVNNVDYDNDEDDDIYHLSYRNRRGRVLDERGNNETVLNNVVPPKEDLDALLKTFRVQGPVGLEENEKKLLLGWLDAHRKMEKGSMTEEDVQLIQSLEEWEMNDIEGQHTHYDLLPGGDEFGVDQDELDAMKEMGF

“S-PΔC (FACT lacking the C-terminus of Pob3) (from UniProt P32558 1-1035; Q04636 1-552) (complex)” displayed a nucleosome reorganization, loss of FRET (%), with Nhp6 in experiment [1] of 63%.

As for “SΔC-P (FACT lacking the C-terminus of Spt16) (from UniProt P32558 1-1035; Q04636 1-552) (complex)”, the nucleosome reorganization, loss of FRET (%), with Nhp6 in experiment [1] was 46.8%.

For the substance “SΔN-P (FACT lacking the N-terminus of Spt16) (from UniProt P32558 1-1035; Q04636 1-552) (complex)”, in experiment [2], the decrease in in vitro chromatin replication (leading-strand length), 50 nM SΔN-P against 50 nM fl FACT, 20 nM fl Tof1-Csm3; restored by 4- and 8-fold excess of SΔN-P amounted to 58%. The substance further registered a nucleosome reorganization, loss of FRET (%), with Nhp6 in experiment [1] of 65%.

In the case of “full-length (fl) FACT (Spt16-Pob3) (from UniProt P32558 1-1035; Q04636 1-552) (complex)”, the reduction of the nucleosome reorganization activity of yFACT (single-molecule FRET) when Tof1-Csm3 is added in experiment [3] came to 53%. In experiment [4], this substance came in with a nucleosome reorganization, loss of FRET (%) of Cy3/Cy5-labelled nucleosomal DNA, FACT together with Nhp6 (yFACT); nucleosome alone 9.23 of 72.1% and a nucleosome reorganization, loss of FRET (%) of Cy3/Cy5-labelled nucleosomal DNA, FACT without Nhp6; nucleosome alone 9.23 of 10.5%.

Values taken from article PMC8860610.
